Laboratory results as given in patent publication US20260265379A1 (IMCHECK THERAPEUTICS, published 2026).
Blank lines part the entries; values can stand above or below the binder they belong to.

Key:
[1] = target: T1, BTN3A1 at the surface of HEK-BTN3A1 cells (human, UniProt O00481 30-513); experiment: flow cytometry, HEK-BTN3A1 cells
T1 construct: HEK 293T BTN2A/BTN3A KO cells transduced with a BTN3A1 expressing vector

[2] = target: T2, PD-1 at the surface of Jurkat-PD-1 cells (human, UniProt Q15116 25-288); experiment: flow cytometry, Jurkat-PD-1 cells
T2 construct: whole, on cells
T2 sequence (Q15116 25-288): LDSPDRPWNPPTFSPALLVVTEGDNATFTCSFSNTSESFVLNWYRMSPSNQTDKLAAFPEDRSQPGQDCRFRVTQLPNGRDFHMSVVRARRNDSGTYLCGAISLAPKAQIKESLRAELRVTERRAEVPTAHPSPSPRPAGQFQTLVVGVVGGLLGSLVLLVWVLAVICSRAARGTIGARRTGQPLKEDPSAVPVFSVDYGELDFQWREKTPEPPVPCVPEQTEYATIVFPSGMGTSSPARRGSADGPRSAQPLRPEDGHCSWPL

[3] = target: T3, recombinant human PD-1 (human, UniProt Q15116 25-167, limits assumed); experiment: SPR
T3 construct: Soluble antigen in SPR; also called rhPD-1
T3 sequence (Q15116 25-167 limits assumed): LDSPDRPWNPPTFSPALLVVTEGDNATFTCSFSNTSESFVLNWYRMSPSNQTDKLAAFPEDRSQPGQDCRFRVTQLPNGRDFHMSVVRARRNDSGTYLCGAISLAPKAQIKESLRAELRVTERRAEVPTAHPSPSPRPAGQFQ
Procedure: (§1) SPR measures the interactions between two or more biomolecules. In capture kinetics analysis, an antibody is immobilized onto a gold-plated prism. The immobilized antibody is referred to as the ligand. An injection of antigen, referred to as the analyte, is carried out, often as a concentration series. The captured analytes are removed from the sensor chip surface using a regenerating agent, for example a low pH or high ionic strength solution. If investigating binding to several analytes, the antibodies are recaptured from solution before each analyte titration series. The instrument records the changes in refractive indexes (due to the accumulation or depletion of mass) in time and plots the results as sensorgrams.
(§2) Affinity measurements with respect to BTN3A, PD-1 and PD-L1 were performed by SPR technology, for instance in a Carterra LSA Platform instrument using a soluble form of the antigen as the analyte and the antibody as the ligand. Binding was also assessed through in cellulo binding assays, on cell lines (e.g. HEK293T cells) genetically modified to express the targets of interest or genetically modified to extinct target expression.
(§3) The 69 produced bsAbs and control mAbs were also evaluated for their binding affinity to recombinant proteins by SPR assays. The equilibrium dissociation constant (KD) was then calculated for constructs showing detectable binding.

[4] = target: T4, recombinant human BTN3A1 (human, UniProt O00481 30-254); experiment: SPR
T4 construct: Soluble form of the antigen used in SPR; also called rhBTN3A1; recombinant BTN3A1 protein
T4 sequence (O00481 30-254 limits assumed): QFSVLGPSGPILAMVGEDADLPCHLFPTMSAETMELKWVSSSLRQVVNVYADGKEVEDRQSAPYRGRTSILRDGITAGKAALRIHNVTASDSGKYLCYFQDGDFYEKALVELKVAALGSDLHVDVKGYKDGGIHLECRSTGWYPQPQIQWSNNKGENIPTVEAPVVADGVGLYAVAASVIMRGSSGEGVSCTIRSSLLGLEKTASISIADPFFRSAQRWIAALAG
Procedure: as §1, §2, §3

[5] = target: T2, PD-1 at the surface of Jurkat-PD-1 cells; experiment: cell-based or functional assay

T1 sequence (O00481 30-513 limits assumed): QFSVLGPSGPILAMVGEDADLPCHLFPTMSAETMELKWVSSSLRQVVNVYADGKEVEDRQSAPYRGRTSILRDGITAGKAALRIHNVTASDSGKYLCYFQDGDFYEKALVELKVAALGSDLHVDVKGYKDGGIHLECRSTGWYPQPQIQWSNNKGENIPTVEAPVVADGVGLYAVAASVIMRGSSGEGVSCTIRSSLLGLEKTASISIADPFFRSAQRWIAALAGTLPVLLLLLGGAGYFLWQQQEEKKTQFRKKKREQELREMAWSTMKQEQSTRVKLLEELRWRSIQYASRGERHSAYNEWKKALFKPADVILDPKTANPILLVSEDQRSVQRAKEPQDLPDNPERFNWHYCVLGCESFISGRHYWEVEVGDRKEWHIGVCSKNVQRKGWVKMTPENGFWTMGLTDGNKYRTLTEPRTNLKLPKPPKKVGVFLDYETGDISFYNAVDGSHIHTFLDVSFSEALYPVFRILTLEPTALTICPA

MFI at 10 nM [1]: 519000 MFI
MFI at 100 nM [1]: 1e+06 MFI
MFI at 100 nM [2]: 334000 MFI
Kd [3]: 2 nM
Kd [4]: 0.065 nM
Jurkat-PD-1 activation at 10 nM [5]: 1.5 fold-change to medium
Jurkat-PD-1 activation at 100 nM [5]: 3.4 fold-change to medium
B2: bsAb056 (bispecific antibody)
heavy 1: GGGGSGGGGSGGGGSGGGGSQVQLVQSGVEVKKPGASVKVSCKASGYTFTNYYMYWVRQAPGQGLEWMGGINPSNGGTNFNEKFKNRVTLTTDSSTTTAYMELKSLQFDDTAVYYCARRDYRFDMGFDYWGQGTTVTVSSGGGGSGGGGSGGGGSGGGGSEIVLTQSPATLSLSPGERATLSCRASKGVSTSGYSYLHWYQQKPGQAPRLLIYLASYLESGVPARFSGSGSGTDFTLTISSLEPEDFAVYYCQHSRDLPLTFGGGTKVEIK
heavy 2: QVQLVQSGAEVKKPGASVKLSCKASGYIFTRYYMYWVKQRPGQGLEWIGEINPNNGGTKFNEKFKNRATLTVDKSISTAYMELSRLRSDDTAVYYCSREDDYDGTPFAMDYWGQGTLVTVSS
light: not shown
notes: one Fab arm anti-BTN3A, one scFv anti-PD-1; not shown: CH2-CH3 (Fc); IgG1 CH1-hinge-CH2-CH3

MFI at 10 nM [1]: 460000 MFI
MFI at 100 nM [1]: 740000 MFI
MFI at 10 nM [2]: 175000 MFI
MFI at 100 nM [2]: 376000 MFI
Kd [3]: 0.856 nM
Kd [4]: 0.101 nM
Jurkat-PD-1 activation at 10 nM [5]: 1.3 fold-change to medium
Jurkat-PD-1 activation at 100 nM [5]: 2.3 fold-change to medium
B4: bsAb049 (bispecific antibody)
heavy 1: QVQLVQSGVEVKKPGASVKVSCKASGYTFTNYYMYWVRQAPGQGLEWMGGINPSNGGTNFNEKFKNRVTLTTDSSTTTAYMELKSLQFDDTAVYYCARRDYRFDMGFDYWGQGTTVTVSSGGGGSGGGGSGGGGSGGGGSEIVLTQSPATLSLSPGERATLSCRASKGVSTSGYSYLHWYQQKPGQAPRLLIYLASYLESGVPARFSGSGSGTDFTLTISSLEPEDFAVYYCQHSRDLPLTFGGGTKVEIKGGGGSGGGGSGGGGSGGGGSQVQLVQSGAEVKKPGASVKLSCKASGYIFTRYYMYWVKQRPGQGLEWIGEINPNNGGTKFNEKFKNRATLTVDKSISTAYMELSRLRSDDTAVYYCSREDDYDGTPFAMDYWGQGTLVTVSS
heavy 2: B2 heavy 2
light: not shown
notes: IgG anti-BTN3A, one scFv anti-PD-1; not shown: IgG1 CH1-hinge-CH2-CH3

MFI at 10 nM [1]: 321000 MFI
MFI at 100 nM [1]: 785000 MFI
MFI at 10 nM [2]: 185000 MFI
MFI at 100 nM [2]: 366000 MFI
Kd [3]: 1.8 nM
Kd [4]: 0.069 nM
Jurkat-PD-1 activation at 10 nM [5]: 5.3 fold-change to medium
Jurkat-PD-1 activation at 100 nM [5]: 7.6 fold-change to medium
B6: bsAb052 (bispecific antibody)
heavy (part 1 of 2): B2 heavy 2
heavy (part 2 of 2): B2 heavy 1
heavy: B2 heavy 1
light: not shown
notes: one Fab arm anti-BTN3A, two scFv anti-PD-1; not shown: IgG1 CH1-hinge-CH2-CH3; CH2-CH3 (Fc)

Further lines, the binder ahead of its results:

B1: bsAb033 (bispecific antibody)
heavy (part 1 of 2): B2 heavy 2
heavy (part 2 of 2): B2 heavy 1
heavy: B2 heavy 2
light: not shown
notes: as for B4
MFI at 10 nM [1]: 584000 MFI
MFI at 100 nM [1]: 1.18e+06 MFI
MFI at 10 nM [2]: 194000 MFI
MFI at 100 nM [2]: 340000 MFI
Kd [3]: 0.786 nM
Kd [4]: 0.067 nM
Jurkat-PD-1 activation at 10 nM [5]: 1.6 fold-change to medium
Jurkat-PD-1 activation at 100 nM [5]: 6 fold-change to medium

B3: bsAb038 (bispecific antibody)
heavy (part 1 of 2): B2 heavy 2
heavy (part 2 of 2): GGGGSGGGGSGGGGSGGGGSEIVLTQSPATLSLSPGERATLSCRASKGVSTSGYSYLHWYQQKPGQAPRLLIYLASYLESGVPARFSGSGSGTDFTLTISSLEPEDFAVYYCQHSRDLPLTFGGGTKVEIKGGGGSGGGGSGGGGSGGGGSQVQLVQSGVEVKKPGASVKVSCKASGYTFTNYYMYWVRQAPGQGLEWMGGINPSNGGTNFNEKFKNRVTLTTDSSTTTAYMELKSLQFDDTAVYYCARRDYRFDMGFDYWGQGTTVTVSS
heavy: B2 heavy 2
light: not shown
notes: as for B4
MFI at 10 nM [1]: 588000 MFI
MFI at 100 nM [1]: 1.2e+06 MFI
MFI at 10 nM [2]: 160000 MFI
MFI at 100 nM [2]: 294000 MFI
Kd [3]: 1.9 nM
Kd [4]: 0.071 nM
Jurkat-PD-1 activation at 10 nM [5]: 1.5 fold-change to medium
Jurkat-PD-1 activation at 100 nM [5]: 3.5 fold-change to medium

B5: bsAb047 (bispecific antibody)
heavy 1: EIVLTQSPATLSLSPGERATLSCRASKGVSTSGYSYLHWYQQKPGQAPRLLIYLASYLESGVPARFSGSGSGTDFTLTISSLEPEDFAVYYCQHSRDLPLTFGGGTKVEIKGGGGSGGGGSGGGGSGGGGSQVQLVQSGVEVKKPGASVKVSCKASGYTFTNYYMYWVRQAPGQGLEWMGGINPSNGGTNFNEKFKNRVTLTTDSSTTTAYMELKSLQFDDTAVYYCARRDYRFDMGFDYWGQGTTVTVSSGGGGSGGGGSGGGGSGGGGSQVQLVQSGAEVKKPGASVKLSCKASGYIFTRYYMYWVKQRPGQGLEWIGEINPNNGGTKFNEKFKNRATLTVDKSISTAYMELSRLRSDDTAVYYCSREDDYDGTPFAMDYWGQGTLVTVSS
heavy 2: B2 heavy 2
light: not shown
notes: as for B4
MFI at 10 nM [1]: 536000 MFI
MFI at 100 nM [1]: 866000 MFI
MFI at 10 nM [2]: 264000 MFI
MFI at 100 nM [2]: 364000 MFI
Kd [3]: 1.4 nM
Kd [4]: 0.168 nM
Jurkat-PD-1 activation at 10 nM [5]: 3.1 fold-change to medium
Jurkat-PD-1 activation at 100 nM [5]: 8.3 fold-change to medium

B7: bsAb025 (bispecific antibody)
heavy: QVQLVQSGVEVKKPGASVKVSCKASGYTFTNYYMYWVRQAPGQGLEWMGGINPSNGGTNFNEKFKNRVTLTTDSSTTTAYMELKSLQFDDTAVYYCARRDYRFDMGFDYWGQGTTVTVSSASTKGPSVFPLAPSSKSTSGGTAALGCLVKDYFPEPVTVSWNSGALTSGVHTFPAVLQSSGLYSLSSVVTVPSSSLGTQTYICNVNHKPSNTKVDKKVEPKSCDKTHTGGSSGSGSGSTGTSSSGTGTSAGTTGTSASTSGSGSGGGGGSGGGGSAGGEIVLTQSPATLSLSPGERATLSCRASKGVSTSGYSYLHWYQQKPGQAPRLLIYLASYLESGVPARFSGSGSGTDFTLTISSLEPEDFAVYYCQHSRDLPLTFGGGTKVEIKRTVAAPSVFIFPPSDEQLKSGTASVVCLLNNFYPREAKVQWKVDNALQSGNSQESVTEQDSKDSTYSLSSTLTLSKADYEKHKVYACEVTHQGLSSPVTKSFNRGECGGGGSGGGGSGGGGSGGGGSQVQLVQSGAEVKKPGASVKLSCKASGYIFTRYYMYWVKQRPGQGLEWIGEINPNNGGTKFNEKFKNRATLTVDKSISTAYMELSRLRSDDTAVYYCSREDDYDGTPFAMDYWGQGTLVTVSSASTKGPSVFPLAPSSKSTSGGTAALGCLVKDYFPEPVTVSWNSGALTSGVHTFPAVLQSSGLYSLSSVVTVPSSSLGTQTYICNVNHKPSNTKVDKRVEPKSCDKTHTCPPCPAPEFEGGPSVFLFPPKPKDTLMISRTPEVTCVVVDVSHEDPEVKFNWYVDGVEVHNAKTKPREEQYNSTYRVVSVLTVLHQDWLNGKEYKCKVSNKALPASIEKTISKAKGQPREPQVYTLPPSREEMTKNQVSLTCLVKGFYPSDIAVEWESNGQPENNYKTTPPVLDSDGSFFLYSKLTVDKSRWQQGNVFSCSVMHEALHNHYTQKSLSLSPG
light: not shown
notes: IgG anti-BTN3A, scFab anti-PD-1
MFI at 10 nM [1]: 177000 MFI
MFI at 100 nM [1]: 669000 MFI
MFI at 10 nM [2]: 110000 MFI
MFI at 100 nM [2]: 358000 MFI
Kd [3]: 1.1 nM
Kd [4]: 0.154 nM

B8: bsAb022 (bispecific antibody)
heavy: QVQLVQSGVEVKKPGASVKVSCKASGYTFTNYYMYWVRQAPGQGLEWMGGINPSNGGTNFNEKFKNRVTLTTDSSTTTAYMELKSLQFDDTAVYYCARRDYRFDMGFDYWGQGTTVTVSSGGGGSGGGGSGGGGSGGGGSEIVLTQSPATLSLSPGERATLSCRASKGVSTSGYSYLHWYQQKPGQAPRLLIYLASYLESGVPARFSGSGSGTDFTLTISSLEPEDFAVYYCQHSRDLPLTFGGGTKVEIKGGGGSGGGGSGGGGSGGGGSQVQLVQSGAEVKKPGASVKLSCKASGYIFTRYYMYWVKQRPGQGLEWIGEINPNNGGTKFNEKFKNRATLTVDKSISTAYMELSRLRSDDTAVYYCSREDDYDGTPFAMDYWGQGTLVTVSSASTKGPSVFPLAPSSKSTSGGTAALGCLVKDYFPEPVTVSWNSGALTSGVHTFPAVLQSSGLYSLSSVVTVPSSSLGTQTYICNVNHKPSNTKVDKRVEPKSCDKTHTCPPCPAPEFEGGPSVFLFPPKPKDTLMISRTPEVTCVVVDVSHEDPEVKFNWYVDGVEVHNAKTKPREEQYNSTYRVVSVLTVLHQDWLNGKEYKCKVSNKALPASIEKTISKAKGQPREPQVYTLPPSREEMTKNQVSLTCLVKGFYPSDIAVEWESNGQPENNYKTTPPVLDSDGSFFLYSKLTVDKSRWQQGNVFSCSVMHEALHNHYTQKSLSLSPG
light: not shown
notes: IgG anti-BTN3A, scFv anti-PD-1
MFI at 10 nM [1]: 224000 MFI
MFI at 100 nM [1]: 992000 MFI
MFI at 10 nM [2]: 216000 MFI
MFI at 100 nM [2]: 367000 MFI
Kd [3]: 0.928 nM
Kd [4]: 0.163 nM
